Patent publication EP4545559A2 (INSTITUTO BUTANTAN, dated 2025)
Like-named read-outs stand apart in the source and are kept apart here.

What was measured:
[1] = biological target: T1, RBD Gamma (K417T/E484K/N501Y) (SARS-CoV-2, UniProt P0DTC2 319-541); test: SPR kinetics; * dissociation in 360sec
T1 construct: domain: RBD

[2] = biological target: T2, RBD Omicron (G339D, S371L, S373P, S375F, K417N, N440K, G446S, S477N, T478K, E484A, Q493R, G496S, Q49 (SARS-CoV-2, UniProt P0DTC2 319-541)); test: SPR kinetics; * dissociation in 360sec
T2 construct: range 319-541

RBD Delta (L452R/T478K) [3] = biological target: T3, RBD Delta (L452R/T478K) (SARS-CoV-2, UniProt P0DTC2 319-541); test: SPR kinetics; *** did not dissociate until 36000sec
T3 construct: domain: RBD

[4] = biological target: T1, RBD Gamma (K417T/E484K/N501Y); test: SPR, antigen on CM5 sensor
[5] = biological target: T2, RBD Omicron (G339D, S371L, S373P, …); test: SPR, antigen on CM5 sensor
RBD Delta (L452R/T478K) [6] = biological target: T3, RBD Delta (L452R/T478K); test: SPR, antigen on CM5 sensor
[7] = biological target: T1, RBD Gamma (K417T/E484K/N501Y); test: SPR, antigen on CM5 sensor; remark: listed apart in the source
[8] = biological target: T2, RBD Omicron (G339D, S371L, S373P, …); test: SPR, antigen on CM5 sensor; remark: listed apart in the source
RBD Delta (L452R/T478K) [9] = biological target: T3, RBD Delta (L452R/T478K); test: SPR, antigen on CM5 sensor; remark: listed apart in the source
[10] = biological target: T1, RBD Gamma (K417T/E484K/N501Y); test: SPR kinetics; * dissociation in 360sec; remark: listed apart in the source
[11] = biological target: T2, RBD Omicron (G339D, S371L, S373P, …); test: SPR kinetics; * dissociation in 360sec; remark: listed apart in the source
RBD Delta (L452R/T478K) [12] = biological target: T3, RBD Delta (L452R/T478K); test: SPR kinetics; * dissociation in 360sec
RBD Delta (L452R/T478K) [13] = biological target: T3, RBD Delta (L452R/T478K); test: SPR kinetics; * dissociation in 360sec; remark: listed apart in the source
RBD Delta (L452R/T478K) [14] = biological target: T3, RBD Delta (L452R/T478K); test: SPR, antigen on CM5 sensor; remark: listed apart in the source
[15] = biological target: T1, RBD Gamma (K417T/E484K/N501Y); test: SPR kinetics; *** did not dissociate until 36000sec
RBD Delta (L452R/T478K) [16] = biological target: T3, RBD Delta (L452R/T478K); test: as above; remark: listed apart in the source
[17] = biological target: T2, RBD Omicron (G339D, S371L, S373P, …); test: SPR kinetics; * dissociation in 360sec; remark: listed apart in the source
[18] = biological target: T1, RBD Gamma (K417T/E484K/N501Y); test: SPR, antigen on CM5 sensor; remark: listed apart in the source
[19] = biological target: T2, RBD Omicron (G339D, S371L, S373P, …); test: SPR, antigen on CM5 sensor; remark: listed apart in the source
RBD Delta (L452R/T478K) [20] = biological target: T3, RBD Delta (L452R/T478K); test: SPR, antigen on CM5 sensor; remark: listed apart in the source
[21] = biological target: T1, RBD Gamma (K417T/E484K/N501Y); test: SPR kinetics; *** did not dissociate until 36000sec; remark: listed apart in the source
[22] = biological target: T2, RBD Omicron (G339D, S371L, S373P, …); test: as above
RBD Delta (L452R/T478K) [23] = biological target: T3, RBD Delta (L452R/T478K); test: as above; remark: listed apart in the source
[24] = biological target: T1, RBD Gamma (K417T/E484K/N501Y); test: SPR, antigen on CM5 sensor; remark: listed apart in the source
[25] = biological target: T2, RBD Omicron (G339D, S371L, S373P, …); test: SPR, antigen on CM5 sensor; remark: listed apart in the source
RBD Delta (L452R/T478K) [26] = biological target: T3, RBD Delta (L452R/T478K); test: SPR, antigen on CM5 sensor; remark: listed apart in the source
[27] = biological target: T1, RBD Gamma (K417T/E484K/N501Y); test: SPR, antigen on CM5 sensor; remark: listed apart in the source
[28] = biological target: T2, RBD Omicron (G339D, S371L, S373P, …); test: SPR, antigen on CM5 sensor; remark: listed apart in the source
RBD Delta (L452R/T478K) [29] = biological target: T3, RBD Delta (L452R/T478K); test: SPR, antigen on CM5 sensor; remark: listed apart in the source
[30] = biological target: T1, RBD Gamma (K417T/E484K/N501Y); test: SPR kinetics; ** dissociation in 36000sec
[31] = biological target: T2, RBD Omicron (G339D, S371L, S373P, …); test: SPR kinetics; *** did not dissociate until 36000sec; remark: listed apart in the source
RBD Delta (L452R/T478K) [32] = biological target: T3, RBD Delta (L452R/T478K); test: as above; remark: listed apart in the source

B1: Monoclonal antibody S.9.1.H5 (antibody, V domains shown)
VH: QVQLVESGGGVVQPGRSLRLSCAASGFTFSRYGMHWVRQAPGKGLEWVALISYDGTNKYYADSVKGRFTISRDNSKSTQYLQMNSLRAEDTAVYFCAKESFGYASGSYYFDYWGQGTLVTVSS
VL: DIQMTQSPSSLSASVGDRITITCQASQDISNYLNWYQQKPGKAPKLMIYDASNLETGVPSRFSGSGAGTDFTFTISSLQPEDFARYYCQQYGNLPLTFGGGTKVEIK
notes: also called mAb S.9.1.H5
- Kd [1]: 1.11 nM
- Kd [2]: 1.83 nM
- Kd (RBD Delta (L452R/T478K) [3]): ~0.197 nM
- RU [4]: 376 RU
- RU [5]: 175 RU
- RU (RBD Delta (L452R/T478K) [6]): 942 RU

B2: Monoclonal antibody S.11.1.F4 (antibody, V domains shown)
VH: QVQLVQSGAEVKKPGSSVRVSCKASAGTFSSYAIRWVRQAPGQGLEWMGTIIPIFGTTNYAQKFQGRVSITADESTNTAYMELSSLRSEDTAVYYCARDLETSPLYGLDVWGQGTTVTVSS
VL: DIQMTQSPSSLSASVGDRVTITCRASQTISRYLNWYQQKPGKPPKLLIFAASTLHSGVPSRFSGSGSGTEFTLTITSLHPDDFSTYYCQQTYSSPHTFGQGTKLEIK
notes: also called S.11.1.F4 mAb
- RU [7]: 218 RU
- RU [8]: 153 RU
- RU (RBD Delta (L452R/T478K) [9]): 743 RU
- Kd [10]: 1.21 nM
- Kd [11]: 0.584 nM
- Kd (RBD Delta (L452R/T478K) [12]): 1.89 nM

B3: Monoclonal antibody S.11.1.H1 (antibody, V domains shown)
VH: QVQLVESGGGVVQPGRSLTLSCSASGFPFSTYVMHWVRQAPGKGLEWVAVISSDGSNENYADSVKGRFTVSRDNFGSTLFLQMSTLRPDDTAVYYCARTAGRGYADRGRLDTWGQGTLVTVSS
VL: not shown
notes: also called mAb S.11.1.H1
- Kd (RBD Delta (L452R/T478K) [13]): 0.548 nM
- RU (RBD Delta (L452R/T478K) [14]): 913 RU

B4: Monoclonal antibody S.9.1.C9 (antibody, V domains shown)
VH: QVQLVESGGGVVQPGRSLGLSCAVSGFTFSNYGMDWVRQAPGKGLEWVAVTSYDGSNKYYADSVKGRFTISRDNSKNTLYLQMNSLRTEDTAVYYCAKHGGGPYCGGGTCYLAYFDYWGQGTLVTVSS
VL: DIQMTQSPSSLSASVRDRVTITCQASQDISKFLNWYQQKPGKAPKLLIYDASNLETGVPSRFSGSGSGTDFTFTISSLQPEDIATYYCQQYDNLPITFGQGTRLEIKR
notes: also called mAb S.9.1.C9
- Kd [15]: ~0.362 nM
- Kd (RBD Delta (L452R/T478K) [16]): ~0.455 nM
- Kd [17]: 0.241 nM
- RU [18]: 294 RU
- RU [19]: 137 RU
- RU (RBD Delta (L452R/T478K) [20]): 636 RU

B5: Monoclonal antibody S.9.2.B8 (antibody, V domains shown)
VH: EVQLVETGGGLIQPGGSLRLSCAASGLIVSSNYMTWVRQAPGKGLEWVSVLYSGGTTYYADSVKGRVTISRDNSKNTLYLQVNSLTVADTAVYYCARDLADRGGMDVWGQGTTVTVSS
VL: SYELTQPPSVSVAPGQTARITCGGNNIGSQSVHWYQQKPGQAPVLVVYDDSDRPSGIPERFSGSKSGNMATLTISRVEAGDEADYYCQVWDSSSDHVVFGGGTKLTVL
notes: also called mAb S.9.2.B8
- Kd [21]: ~1.17 nM
- Kd [22]: ~1.77 nM
- Kd (RBD Delta (L452R/T478K) [23]): ~0.000836 nM
- RU [24]: 74 RU
- RU [25]: 22 RU
- RU (RBD Delta (L452R/T478K) [26]): 163 RU

B6: Monoclonal antibody S.9.4.A9 (antibody, V domains shown)
VH: QVQLVQSGAEVKKPGASVKVSCKASGYTFISYGISWVRQAPGQELEWMGWISAYNGNTNYAQKLQGRVTMTRDTSTTTAYMELRSLRSDDTAVYYCARVLGGLWFGEPKARHSDYWGQGTLVTVSS
VL: IQMTQSPSSLSASVGDRVTITCRASQGINNYLAWFQQKPGKAPKSLIYAASSLHSGVPSRFSGSGSGTDFTLTISSLQPEDFATYYCQQYNTYPITFGQGTRLEIK
notes: also called mAb S.9.4.A9
- RU [27]: 3 RU
- RU [28]: 1 RU
- RU (RBD Delta (L452R/T478K) [29]): 4 RU
- Kd [30]: 0.254 nM
- Kd [31]: ~79.6 nM
- Kd (RBD Delta (L452R/T478K) [32]): ~0.0316 nM
